Positions count from the first letter of the chain named. One block for each binder: values may come before it.
How the values were obtained:
[1] = target: T1, NKG2A/CD94 on CHO cells (CHOK1-NKG2A-CD94) (human, UniProt P26715 1-233; Q13241 1-179, limits assumed); experiment: FACS on CHO cells over-expressing human NKG2A (FIG. 45F)
T1 construct: whole, on cells; also called CHO cells over-expressing NKG2A/CD94; CHO cell line over expressing ectopic NKG2A
Protocol: (§1) Then wash the cells 3 times with 170 µL FACS buffer. Re-suspend the cells at 100 µL/well with secondary antibody (goat anti-human Ig Fab-FITC, Cat # 2085-02, Southern biotech) with 1:400 dilution and incubate the plate for 30 min at 4° C. in dark. Centrifuge the plate at 2000 rpm, 4° C. for 5 min and discard supernatant. Then wash the cells 3 times with FACS buffer and analyze the sample with FACS verse. The fluorescence intensity of the staining was measured using flow cytometer (BD, FACSVerse). The geometric mean fluorescence intensity (GMFI; median fluorescence intensity (MFI)) of set antibodies staining was calculated (BD FACSuite software). Dose-response curves were generated and EC50s for thetrispecific variants binding were calculated using GraphPad Prism software.
Results: The expressed trispecific constructs were analyzed for their binding to cells expressing endogenous CD3ε, 5T4 and NKG2A/NKG2D. […] (FIG. 45F).

NKG2A-CD94-ECD-hFc [2] = target: T2, NKG2A-CD94-ECD-hFc (human, UniProt P26715 94-233; Q13241 32-179, limits assumed); experiment: ELISA on coated NKG2A-CD94-ECD-hFc (FIG. 43D)
T2 construct: extracellular domain; Lot 20200724002, 'provided by CP'; the two-chain layout here is only the reading of the name; also called human NKG2A (recombinant); NKG2A antigen; not shown: human Fc (hFc)
T2 sequence (P26715 94-233 limits assumed, chain 1 of 2): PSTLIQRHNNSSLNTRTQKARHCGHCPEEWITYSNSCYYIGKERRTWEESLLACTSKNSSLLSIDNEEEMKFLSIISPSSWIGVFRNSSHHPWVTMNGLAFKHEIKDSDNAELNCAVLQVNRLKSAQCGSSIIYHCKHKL
T2 sequence (Q13241 32-179 limits assumed, chain 2 of 2): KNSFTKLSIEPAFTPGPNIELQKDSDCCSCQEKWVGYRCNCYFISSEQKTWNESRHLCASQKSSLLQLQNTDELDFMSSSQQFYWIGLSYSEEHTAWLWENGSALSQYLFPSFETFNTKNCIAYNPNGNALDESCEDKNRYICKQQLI
Protocol: (§2) Methods: ELISA binding of Tribody/ProTribody antibody constructs to antigens: Dilute target protein (hCD3epsilon-His (cat # 10977-H08S, supplier Sino Biological); h5T4-His (cat# 19845-H08H, supplier Sino Biological); NKG2A-CD94-ECD-hFc, Lot:20200724002, provided by CP; or NKG2D-ECD-hFc, Lot: 20200413002, provided by CP) into PBS with final concentration of 0.01 µg/mL for hCD3epsilon-His, 0.3 µg/mL for h5T4-His, 1 µg/mL for NKG2A-CD94-ECD-hFc and 0.7 µg/mL for hNKG2D-ECD-hFc respectively and coat 100 µL/well on ELISA plate (cat: 9018, supplier Corning) respectively. Incubate O/N, 4° C. The plates were blocked with 250 µL 1% BSA in PBST for 1 hr at 37° C.Wash 4 times with PBST. All the washes are done using Biotek (Elx 405). All the Tribody set antibodies were diluted to 400 nM and make 4-fold serially dilutions (12 points, including 0 point). Add 100 µL/well diluted antibody constructs solution to plate, incubate for 1 hr at 37° C.Wash 4 times with PBST. Add 100 µL/well anti-human kappa light chain-HRP (1:10000), incubate for 0.5 hr at 37° C. Wash 4 times with PBST. 100 µL/well of TMB substrate was added and incubated at room temperature for 5 min. 100 µL/well of 1N HCl to terminate reaction. Plates were read using ELISA plate reader at 450 nm wavelength (instrunet SpectraMax M5e). Data Analysis was performed using Graphpad prism 5 software by using nonlinear regression (curve fit): log (agonist) vs. response, agonist is antibody concentration (nM) and response is OD value.

[3] = target: T1, NKG2A/CD94 on CHO cells …; experiment: FACS on CHO cells over-expressing human NKG2A (FIG. 45F), reference IM-1062
Protocol: as §1, with “Suspension cultured cells was harvested directly, and adherent cell were digested using TrypLE Express Enzyme (cat: 12604-013, supplier Life technologies). Centrifuge at 1000 rpm for 5 min and discard the supernatant. Cells are suspended at a concentration of 2×10⁶/mL in FACS buffer (2% FBS in PBS) and add 100 µL/well of cell suspension to the plate (cat #3799, supplier Corning). Centrifuging the plates at 2000 rpm for 5 min and discard the supernatant. Re-suspend the cells in 100 µL/well of Tribody set antibodies (400 nM start, 4-fold dilution, 8 point including 0 point) and incubate the plate for 60 min at 4° C. Centrifuge the plate at 2000 rpm, 4° C. for 5 min and discard supernatant. Then” for “Then”, “Then wash the cells 3 times with FACS buffer and analyze the sample with FACS verse.” left out

NKG2A-CD94-ECD-hFc [4] = target: T2, NKG2A-CD94-ECD-hFc; experiment: ELISA on coated NKG2A-CD94-ECD-hFc (FIG. 43D), reference IM-1062
Protocol: as §2, with “Data Analysis was performed using Graphpad prism 5 software by using nonlinear regression (curve fit): log (agonist) vs. response, agonist is antibody concentration (nM) and response is OD value.” left out

NKG2D-ECD-hFc = target: T3, NKG2D-ECD-hFc (human, UniProt P26718 73-216); experiment: ELISA, data not shown
T3 construct: extracellular domain; Lot 20200413002, 'provided by CP'; also called hNKG2D-ECD-hFc; not shown: human Fc (hFc)
T3 sequence (looked up): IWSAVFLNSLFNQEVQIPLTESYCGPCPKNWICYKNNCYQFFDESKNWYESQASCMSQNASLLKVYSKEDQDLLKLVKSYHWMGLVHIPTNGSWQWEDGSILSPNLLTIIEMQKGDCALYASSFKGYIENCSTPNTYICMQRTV
Protocol: as §2, with “Data Analysis was performed using Graphpad prism 5 software by using nonlinear regression (curve fit): log (agonist) vs. response, agonist is antibody concentration (nM) and response is OD value.” left out

NKG2D on cells = target: T4, NKG2D on cells (UniProt P26718 1-216, limits assumed); experiment: FACS, data not shown
T4 construct: whole, on cells
T4 sequence (looked up): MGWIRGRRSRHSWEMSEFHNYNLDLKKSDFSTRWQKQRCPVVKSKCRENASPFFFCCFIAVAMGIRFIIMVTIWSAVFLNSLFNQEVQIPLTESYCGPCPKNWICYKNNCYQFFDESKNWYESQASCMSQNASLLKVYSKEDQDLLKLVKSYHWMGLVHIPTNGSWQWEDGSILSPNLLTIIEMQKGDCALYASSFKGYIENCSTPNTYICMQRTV

T1 sequence (P26715 whole entry, chain 1 of 2): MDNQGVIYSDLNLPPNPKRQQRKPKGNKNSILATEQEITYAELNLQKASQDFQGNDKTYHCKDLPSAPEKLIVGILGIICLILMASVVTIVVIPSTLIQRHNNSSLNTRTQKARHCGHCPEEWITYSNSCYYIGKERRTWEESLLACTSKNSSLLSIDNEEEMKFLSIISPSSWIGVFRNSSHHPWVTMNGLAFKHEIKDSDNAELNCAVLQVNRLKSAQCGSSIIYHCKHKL
T1 sequence (Q13241 whole entry, chain 2 of 2): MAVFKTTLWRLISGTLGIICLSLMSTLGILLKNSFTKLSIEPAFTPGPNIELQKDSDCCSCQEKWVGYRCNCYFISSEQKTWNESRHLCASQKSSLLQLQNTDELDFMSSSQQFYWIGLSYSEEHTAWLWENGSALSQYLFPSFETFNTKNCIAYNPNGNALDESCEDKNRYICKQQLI

EC50 [1]: 0.2 nM
EC50 (NKG2A-CD94-ECD-hFc [2]): 0.1 nM
fold improved binding affinity against IM-1062 [3]: ~80 fold
fold improved binding affinity against IM-1062 (NKG2A-CD94-ECD-hFc [4]): ~60 fold
B1: IM-1273 bi-NKG2A scFv Tribody, CD3 mutant variant (other)
heavy: GGSGGSEVQLVESGGGLVQPGGSLRLSCAASGFTFNTYAMNWVRQAPGKGLEWVARIGSGGNGYATYYADSVKDRFTISRDDSKNTLYLQMNSLRAEDTAVYYCVRHGNFGASARSWFAYWGQGTMVTVSSASTKGPSVFPLAPSSKSTSGGTAALGCLVKDYFPEPVTVSWNSGALTSGVHTFPAVLQSSGLYSLSSVVTVPSSSLGTQTYICNVNHKPSNTKVDKRVEPKSCPPCGGGGSDIQMTQSPSSLSASVGDRVTITCRASENIYSYLAWYQQKPGKAPKLLIYNAKTLAEGVPSRFSGSGSGTDFTLTISSLQPEDFATYYCQHHYGTPRTFGGGTKVEIKGGGGSGGGGSGGGGSQVQLVQSGAEVKKPGASVKVSCKASGYTFTSYWMNWVRQAPGQGLEWMGRIDPYDSETHYAQKLQGRVTMTTDTSTSTAYMELRSLRSDDTAVYYCARGGYDFDVGTLYWFFDVWGQGTTVTVSSGGGGSDIQMTQSPSSLSASVGDRVTITCRASENIYSYLAWYQQKPGKAPKLLIYNAKTLAEGVPSRFSGSGSGTDFTLTISSLQPEDFATYYCQHHYGTPRTFGGGTKVEIKGGGGSGGGGSGGGGSQVQLVQSGAEVKKPGASVKVSCKASGYTFTSYWMNWVRQAPGQGLEWMGRIDPYDSETHYAQKLQGRVTMTTDTSTSTAYMELRSLRSDDTAVYYCARGGYDFDVGTLYWFFDVWGQGTTVTVSS
light: GGSGGSQAVVTQEPSLTVSPGGTVTLTCRSSTGAVTRGNAANWVQQKPGQAPRGLIGGTNARAPGTPARFSGSLLGGKAALTLSGVQPEDEAEYYCALGYSGLWVFGGGTKLTVLGQPKAAPSVTLFPPSSEELQANKATLVCLISDFYPGAVTVAWKADSSPVKAGVETTTPSKQSNNKYAASSYLSLTPEQWKSHRSYSCQVTHEGSTVEKTVAPTECPPCSGGGSDIQMTQSPSSLSASVGDRVTITCRASQGISNYLAWFQQKPGKAPKSLIYRANRLQSGVPSRFSGSGSGTDFTLTISSLQPEDVATYYCLQYDDFPWTFGQGTKLEIKGGGGSGGGGSGGGGSGGGGSQVQLVQSGAEVKKPGASVKVSCKASGYTFTSFWMHWVRQAPGQGLEWMGRIDPNRGGTEYNEKAKSRVTMTADKSTSTAYMELSSLRSEDTAVYYCAGGNPYYPMDYWGQGTTVTVSS
notes: Two anti-NKG2A scFv in tandem, CD3 arm mutated; also called IM-1273 CD3 mutant variant

binding result (NKG2D-ECD-hFc): no binding
binding result (NKG2D on cells): no binding
B2: IM-1091 Tribody, NKG2D mutant variant (other)
heavy: GGSGGSEVQLVESGGGLVQPGGSLRLSCAASGFTFNTYAMNWVRQAPGKGLEWVARIRSKYNNYATYYADSVKDRFTISRDDSKNTLYLQMNSLRAEDTAVYYCVRHGNFGNSYVSWFAYWGQGTMVTVSSASTKGPSVFPLAPSSKSTSGGTAALGCLVKDYFPEPVTVSWNSGALTSGVHTFPAVLQSSGLYSLSSVVTVPSSSLGTQTYICNVNHKPSNTKVDKRVEPKSCPPCGGGGSQSALTQPASVSGSPGQSITISCSGSSSNIGNNAVNWYQQLPGKAPKLLIYADDLLPSGVSDRFSGSKSGTSAFLAISGLQSEDEADYYCAAWDDSLNGPVFGGGTKLTVLGGGGSGGGGSGGGGSGGGGSQVQLVESGGGLVKPGGSLRLSCAASGFTFSSYGMHWVRQAPGKGLEWVAFIRYDGSNKYYADSVKGRFTISRDNSKNTLYLQMNSLRAEDTAVYYCAKDAGEGDGTYFDYWGQGTTVTVSS
light: B1 light with R37T, G38S, A40Y, A61K, G99W, G102N
notes: CD3/5T4/NKG2D Tribody with mutated anti-NKG2D arm
